B1: Homolog_T9: RecT, Bacillus sp. MUM 116; SEQ ID NO: 129 (protein, listed as Bacillus sp.)
chain: MSKQLTTVNTQAVVGTFSQAELDTLKQTIAKGTTNEQFALFVQTCANSRLNPFLNHIHCIVYNGKEGATMSLQIAVEGILYLARKTDGYKGIECQLIHENDEFKFDAKSKEVDHQIGFPRGNVIGGYAIAKREGFDDVVVLMESNEVDHMLKGRNGHMWRDWFNDMFKKHIMKRAAKLQYGIEIAEDETVSSGPSVDNIPEYKPQPRKDITPNQDVIDAPPQQPKQDDEAAKLKAARSEVSKKFKKLGIVKEDQTEYVEKHVPGFKGTLSDFIGLSQLLDLNIEAQEAQSADGDLLD
B2: Homolog_T14: RecT, Pseudobacteriovorax antillogorgiicola; SEQ ID NO: 139 (protein, listed as Pseudobacteriovorax antillogorgiicola)
chain: MGHLVSKTEQDYIKQHYAKGATDQEFEHFIGVCRARGLNPAANQIYFVKYRSKDGPAKPAFILSIDSLRLIAHRTGDYAGCSEPIFTDGGKACTVTVRRNLKSGETGNFSGMAFYDEQVQQKNGRPTSFWQSKPRTMLEKCAEAKALRKAFPQDLGQFYIREEMPPQYDEPIQVHKPKALEEPRFSKSDLSRRKGLNRKLSALGVDPSRFDEVATFLDGTPDRELGQKLKLWLKEAGYGVNQ
B3: Homolog_E11: RecE, Salmonella enterica; SEQ ID NO: 134 (protein, listed as Salmonella enterica)
chain: DRGLLTKEWRKGNRVSRITRTASGANAGGGNLTDRGEGFVHDLTSLARDVATGVLARSMDVDIYNLHPAHAKRVEEIIAENKPPFSVFRDKFITMPGGLDYSRAIVVASVKEAPIGIEVIPAHVTEYLNKVLTETDHANPDPEIVDIACGRSSAPMPQRVTEEGKQDDEEKPQPSGAMADEQATAETVEPNATEHHQNTQPLDAQSQVNSVDAKYQELRAELQEARKNIPSKNPVDADKLLAASRGEFVDGISDPNDPKWVKGIQTRDSVYQNQPETEKISPDAKQPEPVVQQEPETVCNACGQTGGDNCPDCGAVMGDATYQETFGEENQVEAKEKDPEEMEGAEHPHNENAGSDPHRDCSDETGEVADPVIVEDIEPGIYYGISNENYHAGPGVSKSQLDDIADTPALYLWRKNAPVDTTKTKTLDLGTAFHCRVLEPEEFSNRFIVAPEFNRRTNAGKEEEKAFLMECASTGKTVITAEEGRKIELMYQSVMALPLGQWLVESAGHAESSIYWEDPETGILCRCRPDKIIPEFHWIMDVKTTADIQRFKTAYYDYRYHVQDAFYSDGYEAQFGVQPTFVFLVASTTVECGRYPVEIFMMGEEAKLAGQQEYHRNLRTLADCLNTDEWPAIKTLSLPRWAKEYAND
B4: Homolog_T11: RecT, Salmonella enterica; SEQ ID NO: 133 (protein, listed as Salmonella enterica)
chain: MTKQPPIAKADLQKTQGNRAPAAVNDKDVLCVINSPAMKAQLAAALPRHMTAERMIRIATTEIRKVPELRNCDSTSFIGAIVQCSQLGLEPGSALGHAYLLPFGNGKAKNGKKNVQLIIGYRGMIDLARRSGQIISLSARVVRECDEFSYELGLDEKLVHRPGENEDAPITHVYAVAKLKDGGVQFEVMTKKQVEKVRDTHSKAAKNAASKGASSIWDEHFEDMAKKTVIRKLFKYLPVSIEIQRAVSMDGKEVETINPDDISVIAGEYSVIDNPEE
B5: Homolog_T10: RecT, Shigella sonnei; SEQ ID NO: 131 (protein, listed as Shigella sonnei)
chain: MTKQPPIAKADLQKTQENRAPAAIKNNDVISFINQPSMKEQLAAALPRHMTAERMIRIATTEIRKVPALGNCDTMSFVSAIVQCSQLGLEPGSALGHAYLLPFGNKNEKSGKKNVQLIIGYRGMIDLARRSGQIASLSARVVREGDEFNFEFGLDEKLIHRPGENEDAPVTHVYAVARLKDGGTQFEVMTRRQIELVRSQSKAGNNGPWVTHWEEMAKKTAIRRLFKYLPVSIEIQRAVSMDEKEPLTIDPADSSVLTGEYSVIDNSEE
B6: Homolog_E13: RecE, Salmonella enterica subsp. enterica serovar Javiana str. 10721; SEQ ID NO: 138 (protein, listed as Salmonella enterica)
chain: MYYDIPNEAYHAGPGVSKSQLDDIADTPAIYLWRKNAPVDTEKTKSLDTGTAFHCRVLEPEEFSKRFIIAPEFNRRTSAGKEEEKTFLEECTRTGRTVLTAEEGRKIELMYQSVMALPLGQWLVESAGYAESSVYWEDPETGILCRCRPDKIIPEFHWIMDVKTTADIQRFRTAYYDYRYHVQDAFYSDGYRAQFGEIPTFVFLVASTTAECGRYPVEIFMMGEDAKLAGQREYRRNLQTLAECLNNDEWPAIKTLSLPRWAKENANA
B7: Homolog_T12: RecT, Acetobacter; SEQ ID NO: 135 (protein, listed as Acetobacter sp.)
chain: MNAPQKQNTRAAVKKISPQEFAEQFAAIIPQVKSVLPAHVTFEKFERVVRLAVRKNPDLLTCSPASLFMACIQAASDGLLPDGREGAIVSRWSSKKSCNEASWMPMVAGLMKLARNSGDIASISSQVVFEGEHFRVVLGDEERIEHERDLGKTGGKIVAAYAVARLKDGSDPIREIMSWGQIEKIRNTNKKWEWGPWKAWEDEMARKTVIRRLAKRLPMSTDKEGERLRSAIERIDSLVDISANVDAPQIAADDEFAAAAHGVEPQQIAAPDLIGRLAQMQSLEQVQDIEPQVSHAIQEADKRGDSDTANALDAALQSALSRTSTAKEEVPA
B8: Homolog_E10: RecE, Shigella sonnei; SEQ ID NO: 132 (protein, listed as Shigella sonnei)
chain: DRGLLTKEWRKGNRVSRITRTASGANAGGGNLTDRGEGFVHDLTSLARDIATGVLARSMDVDIYNLHPAHAKRIEEIIAENKPPFSVFRDKFITMPGGLDYSRAIVVASVKEAPIGIEVIPAHVTAYLNKVLTETDHANPDPEIVDIACGRSSAPMPQRVTEEGKQDDEEKLQPSGTTADEQGEAETMEPDATKHHQDTQPLDAQSQVNSVDAKYQELRAELHEARKNIPSKNPVDADKLLAASRGEFVDGISDPNDPKWVKGIQTRDSVYQNQPETEKTSPDMKQPEPVVQQEPEIAFNACGQTGGDNCPDCGAVMGDATYQETFDEENQVEAKENDPEEMEGAEHPHNENAGSDPHRDCSDETGEVADPVIVEDIEPGIYYGISNENYHAGPGVSKSQLDDIADTPALYLWRKNAPVDTTKTKTLDLGTAFHCRVLEPEEFSNRFIVAPEFNRRTNAGKEEEKAFLMECASTGKMVITAEEGRKIELMYQSVMALPLGQWLVESAGHAESSIYWEDPETGILCRCRPDKIIPEFHWIMDVKTTADIQRFKTAYYDYRYHVQDAFYSDGYEAQFGVQPTFVFLVASTTIECGRYPVEIFMMGEEAKLAGQLEYHRNLRTLADCLNTDEWPAIKTLSLPRWAKEYAND
B9: Homolog_E9: RecE, Bacillus sp. MUM 116; SEQ ID NO: 130 (protein, listed as Bacillus sp.)
chain: MTYAADETLVQLLLSVDGKQLLLGRGLKKGKAQYYINEVPSKAKEFEEIRDQLFDKDLFMSLFNPSYFFTLHWEKQRAMMLKYVTAPVSKEVLKNLPEAQSEVLERYLKKHSLVDLEKIHKDNKNKQDKAYISAQSRTNTLKEQLMQLTEEKLDIDSIKAELAHIDMQVIELEKQMDTAFEKNQAFNLQAQIRNLQDKIEMSKERWPSLKNEVIEDTCRTCKRPLDEDSVEAVKADKDNRIAEYKAKHNSLVSQRNELKEQLNTIEYIDVTELREQIKELDESGQPLREQVRIYSQYQNLDTQVKSAEADENGILQDLKASIFILDSIKAFRGKEAEMQAEKVQALFTTLSVRLFKQNKGDGEIKPDFEIEMNDKPYRTLSLSEGIRAGLELRDVLSQQSELVTPTFVDNAESITSFKQPNGQLIISRVVAGQELKIEAVSE
B10: Homolog_E12: RecE, Acetobacter; SEQ ID NO: 136 (protein, listed as Acetobacter sp.)
chain: MVISKSGIYDLTNEQYHADPCPEMSLSSSGARDLLSSCPAKFIAAKQLPQQNKRCFDIGSAGHLMVLEPHLFDQKVCEIKHPDWRTKAAKEERDAAYAEGRIPLLSREVEDIRAMHSVVWRDSLGARAFSGGKAEQSLVWRDEEFGIWCRLRPDYVPNNAVRIFDYKTATNGSPDAFMKEIYNRGYHQQAAWYLDGYEAVTGHRPREFWFVVQEKTAPFLLSFFQMDEMSLEIGRTLNRQAKGIFAWCLRNNCWPGYQPEVDGKVRFFTTSPPAWLVREYEFKNEHGAYEPPEIKRKEVA
B11: Homolog_T13: RecT, Salmonella enterica subsp. enterica serovar Javiana str. 10721; SEQ ID NO: 137 (protein, listed as Salmonella enterica)
chain: MPKQPPIAKADLQKTQGARTPTAVKNNNDVISFINQPSMKEQLAAALPRHMTAERMIRIATTEIRKVPALGDCDTMSFVSAIVQCSQLGLEPGGALGHAYLLPFGNRNEKSGKKNVQLIIGYRGMIDLARRSGQIASLSARVVREGDDFSFEFGLEEKLVHRPGENEDAPVTHVYAVARLKDGGTQFEVMTRKQIELVRAQSKAGNNGPWVTHWEEMAKKTAIRRLFKYLPVSIEIQRAVSMDEKETLTIDPADASVITGEYSVVENAGVEENVTA

Assays:
HSP90AA1 locus = experiment: mKate knock-in gene-editing assay, RecE/RecT homologs, HSP90AA1 locus; assay type: cell-based, human; conditions: HEK293 cells, MCP fusion, n=3
Procedure: (§1) Transfection HEK293T cells were seeded into 96-well plates (Corning) 12-24 hours prior to transfection at a density of 30,000 cells/well, and 250 ng of total DNA was transfected per well. HeLa and HepG2 cells were seeded into 48-well plates (Corning) one day prior to transfection at a density of 50,000 and 30,000 cells/well respectively, and 400 ng of total DNA was transfected per well. Transfections were performed with Lipofectamine 3000 (Life Technologies) following the manufacturer's instructions.
(§2) Fluorescence-activated cell sorting (FACS) mKate knock-in efficiency was analyzed on a CytoFLEX flow cytometer (Beckman Coulter; Stanford Stem Cell FACS Core). 72 hours after transfection, cells were washed once with PBS and dissociated with TrypLE Express Enzyme (Thermo Fisher Scientific). Cell suspension was then transferred to a 96-well U-bottom plate (Thermo Fisher Scientific) and centrifuged at 300×G for 5 minutes. After removing the supernatant, pelleted cells were resuspended with 50 μl 4% FBS in PBS, and cells were sorted within 30 minutes of preparation.
(§3) 15 different species of microbes having RecE/RecT proteins were selected for a screen of various RecE and RecT proteins across the microbial kingdom (Table 3). Each protein was codon-optimized and synthesized. As previously described for E. coli RecE/RecT based REDIT systems, each protein was fused via E-XTEN linker to the MCP protein with additional nuclear localization signal. mKate knock-in gene-editing assay was used to measure efficiencies at DYNLT1 locus (FIG. 26A, Table 4) and HSP90AA1 locus (FIG. 26B, Table 4).

DYNLT1 locus = experiment: mKate knock-in gene-editing assay, RecE/RecT homologs, DYNLT1 locus; assay type: cell-based, human; conditions: HEK293 cells, MCP fusion, n=3
Procedure: as §1, §2, §3

| Molecule | Mean mKate+ (%), HSP90AA1 (HSP90AA1 locus) | Mean mKate+ (%), DYNLT1 (DYNLT1 locus) |
| --- | --- | --- |
| B1 | 6.2000% | 8.1300% |
| B2 | 4.7200% | 6.7700% |
| B3 | 3.1167% | 7.0567% |
| B4 | 4.9233% | 9.8467% |
| B5 | 5.5900% | 8.5333% |
| B6 | 5.6900% | 5.6333% |
| B7 | 5.2733% | 8.5900% |
| B8 | 3.5900% | 4.4000% |
| B9 | 5.6900% | 5.3233% |
| B10 | 6.0800% | 5.2633% |
| B11 | 5.7200% | 9.9567% |
